Test [1] addresses T1, GR10: H-(GR)10HHHHHH-NH2 (C-terminal amide).
T1 peptide: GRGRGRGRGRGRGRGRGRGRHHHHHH
The test is described as follows: indirect ELISA, His-tagged peptide coated at 50 ug/ml, antibody titrated. As to the method: (§1) 96-well microplates (Corning Incorporated, Corning, USA) were coated with dipeptide repeat protein peptides at a concentration of 50 μg/ml in coating buffer (15 mM Na₂CO₃, 35 mM NaHCO₃, pH 9.42). Non-specific binding sites were blocked for 1 h at room temperature with PBS/0.1% Tween®-20 containing 2% BSA (Sigma-Aldrich, Buchs, Switzerland). Primary antibodies were diluted to the indicated concentrations and incubated 1 h at room temperature, followed by incubation with a donkey anti-human IgG Fcγ-specific antibody conjugated with HRP (Jackson ImmunoResearch Laboratories, Inc., West Grove, USA). Binding was determined by measurement of HRP activity in a standard colorimetric assay. EC₅₀ values were estimated by non-linear regression using GraphPad Prism software (San Diego, USA).
(§2) High affinity binding was detected for poly-GA DPRs harboring 10 or 20 (GA)-repeats, reflected in an EC₅₀ in the subnanomolar or low nanomolar range (FIGS. 7A, 7C-7I).
A general note: An ELISA detects its analyte on a solid surface through an enzyme-linked reagent.

Test [2] addresses T2, (GR)15: H-C(GR)15-OH.
T2 construct: synthetic, not coupled to BSA; also called poly-GR DPR protein peptide
T2 peptide: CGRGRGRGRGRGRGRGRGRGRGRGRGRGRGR
The test is described as follows: indirect ELISA, coated uncoupled peptide.

For test [3], the target named is T3, GR2: H-(GR)2HHHHHH-NH2.
T3 peptide: H-GRGRHHHHHH-NH2
The test can be described thus: indirect ELISA, His-tagged peptide coated at 50 ug/ml, antibody titrated [also D00026 FIG. 7L]. As to the method: as §1, §2

The target in test [4] is T4, PA3: H-(PA)3HHHHHH-NH2.
T4 peptide: H-PAPAPAHHHHHH-NH2
The test is described as follows: indirect ELISA, His-tagged peptide coated at 50 ug/ml, antibody titrated [also D00028 FIG. 7P]. As to the method: as §1, §2

The target in test [5] is T5, PA4: H-(PA)4HHHHHH-NH2.
T5 peptide: H-PAPAPAPAHHHHHH-NH2
The test is described as above. As to the method:
as §1, §2

In test [6] the target is T6, PA2: H-(PA)2HHHHHH-NH2.
T6 peptide: H-PAPAHHHHHH-NH2
The description is as above. As to the method:
as §1, §2

Test [7] concerns the target T7, (PA)15: H-C(PA)15-OH.
T7 construct: synthetic, not coupled to BSA; also called poly-PA DPR protein peptide
T7 peptide: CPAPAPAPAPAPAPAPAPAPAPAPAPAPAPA
The test can be described thus: indirect ELISA, uncoupled peptide coated, antibody titrated [also D00015 FIG. 3K]. As to the method:
as §1, with “In brief, dipeptide repeat proteins were synthesized and purified by Schafer-N(Copenhagen, Denmark): (GA)₁₅: H-CHHHHHH(GA)₁₅-OH; (GP)₁₅: H-C(GP)₁₅-OH; (GR)₁₅: H-C(GR)₁₅-OH; (PA)₁₅: H-C(PA)₁₅-OH; (PR)₁₅: H—C(PR)₁₅-OH. DPR protein peptides were then conjugated via a bifunctional linker (SMCC) to bovine serum albumin (BSA). 96-well microplates” for “96-well microplates”, “coated with BSA-coupled or -uncoupled dipeptide repeat” for “coated with dipeptide repeat”, “concentration of either 5 μg/ml or 20 μg/ml in” for “concentration of 50 μg/ml in”

Test [8] deals with T8, GP6: H-(GP)6HHHHHH-NH2.
T8 peptide: H-GPGPGPGPGPGPHHHHHH-NH2
The test can be described thus: indirect ELISA, His-tagged peptide coated at 50 ug/ml, antibody titrated. As to the method: as §1, §2

Test [9] deals with T9, BSA-coupled (PR)15 DPR protein peptide (bovine, conjugated via a bifunctional linker (SMCC) to bovine serum albumin).
T9 construct: also called BSA-(PR)15
The test is described as follows: indirect ELISA, BSA-coupled peptide coated, antibody titrated [also D00013 FIG. 3F]. As to the method: as §1, with “In brief, dipeptide repeat proteins were synthesized and purified by Schafer-N(Copenhagen, Denmark): (GA)₁₅: H-CHHHHHH(GA)₁₅-OH; (GP)₁₅: H-C(GP)₁₅-OH; (GR)₁₅: H-C(GR)₁₅-OH; (PA)₁₅: H-C(PA)₁₅-OH; (PR)₁₅: H—C(PR)₁₅-OH. DPR protein peptides were then conjugated via a bifunctional linker (SMCC) to bovine serum albumin (BSA). 96-well microplates” for “96-well microplates”, “coated with BSA-coupled or -uncoupled dipeptide repeat” for “coated with dipeptide repeat”, “concentration of either 5 μg/ml or 20 μg/ml in” for “concentration of 50 μg/ml in”

The target in test [10] is T10, (PR)15: H-C(PR)15-OH.
T10 construct: synthetic, not coupled to BSA; also called poly-PR DPR protein peptide
T10 peptide: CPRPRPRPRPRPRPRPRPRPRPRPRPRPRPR
The test can be described thus: indirect ELISA, coated uncoupled peptide.

For test [11], the target named is T10, (PR)15: H-C(PR)15-OH. The test is described as follows: indirect ELISA, uncoupled peptide coated, antibody titrated [also D00013 FIG. 3F]. As to the method:
as §1, with “In brief, dipeptide repeat proteins were synthesized and purified by Schafer-N(Copenhagen, Denmark): (GA)₁₅: H-CHHHHHH(GA)₁₅-OH; (GP)₁₅: H-C(GP)₁₅-OH; (GR)₁₅: H-C(GR)₁₅-OH; (PA)₁₅: H-C(PA)₁₅-OH; (PR)₁₅: H—C(PR)₁₅-OH. DPR protein peptides were then conjugated via a bifunctional linker (SMCC) to bovine serum albumin (BSA). 96-well microplates” for “96-well microplates”, “coated with BSA-coupled or -uncoupled dipeptide repeat” for “coated with dipeptide repeat”, “concentration of either 5 μg/ml or 20 μg/ml in” for “concentration of 50 μg/ml in”

T9 sequence (P02769 25-607 limits assumed, chain 2 of 2, one chain of several): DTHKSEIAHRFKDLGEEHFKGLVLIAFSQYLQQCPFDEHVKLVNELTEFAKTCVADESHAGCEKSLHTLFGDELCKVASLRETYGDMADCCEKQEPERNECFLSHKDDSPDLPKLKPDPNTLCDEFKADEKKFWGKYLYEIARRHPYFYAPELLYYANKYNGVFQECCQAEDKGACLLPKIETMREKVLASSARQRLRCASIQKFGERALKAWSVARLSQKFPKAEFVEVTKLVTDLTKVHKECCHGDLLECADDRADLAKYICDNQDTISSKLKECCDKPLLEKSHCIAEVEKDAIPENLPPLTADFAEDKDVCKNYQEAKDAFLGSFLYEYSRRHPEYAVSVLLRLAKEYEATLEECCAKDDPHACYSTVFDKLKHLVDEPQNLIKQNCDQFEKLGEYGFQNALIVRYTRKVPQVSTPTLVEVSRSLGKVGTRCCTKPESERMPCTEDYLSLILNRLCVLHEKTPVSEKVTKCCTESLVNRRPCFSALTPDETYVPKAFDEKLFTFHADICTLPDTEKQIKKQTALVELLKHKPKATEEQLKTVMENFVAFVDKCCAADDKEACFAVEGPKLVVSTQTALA

B1: NI-308.6B11 (antibody, V domains shown)
VH: EVQLVQSGAEVKRPGASVKVSCKVSGYTLTELSMHWVRQAPGKGLEWMGGFDPEDGETVYAQKFQGRVTMTEDTSTDTAYMELSSLRSEDTALYHCATYGSSWHWNEGNEGSYYFDYWGQGTLVTVSS
VL: CDIQMTQSPSSLSASVGDRVTITCQASQDISIYLNWYQQKPGKAPKLLIYDASNLETGVPSRFSGSGSGTDFTFTISGLQPEDVARYYCQQYDDLPITFGQGTRLEIK
notes: Recombinant complete human IgG1, kappa
By EC50 is commonly meant the concentration giving half of the maximal effect. Turning to B1, the values for the EC50 in test [1] and in test [2] were 1.28 nM and 0.94 nM, respectively. For the same molecule, the binding result in test [3] is listed as “no binding (tested: about 4x10^5 pM (last point))”.

B2: NI-308.4M1 (antibody, V domains shown)
VH: EVQLVETGGGVVQPGGSLRLSCEASGFTIGTYAMHWVRQFPGKGLDWVAVISFDGTTEYYTDAVKGRFTISRDNAKNTLYLQMNYLRGDDTAIYFCARDFTSSGETGSWTQVPDLWGQGTLVTVSS
VL: CEIVMTQSPATLSLSPGERATLSCRASQSVTKYLAWYQQKPGQAPRLLIYDVSYRAAGTPARFSGSGSGTDFTLTISSLEPEDFAVYYCHQRSSWPPVTFGGGTKVEIK
notes: as for B1
As for B2, the binding result in [4], in [5] and in test [6] was “no binding (tested: about 4x10^5 pM (last point))” in each case. The EC50 in [7] stood at 0.1 nM.

B3: NI-308.46E9 (antibody, V domains shown)
VH: QVQLQESGPGLVKPSETLSLTCTVSGASISGSTYYWGWIRQPPGKGLEYIGRIYYSGSTYYNPSLKSRATISVDTSKNQLSLTLSSVTAADTAVYYCVRPFYAGSGNSPFDYWGQGTLVTVSS
VL: CEIVLTQSPATVSVSPGERATLSCRASQSVSTNLAWYQQKPGQPPRLLIYGASTRATGIPARFSGSGSGAEFTLTISSLQSEDFVVYYCQQYNNWPPAFGGGTKVEIK
notes: as for B1
Molecule B3 registered an EC50 in [8] above 200 nM.

B4: NI-308.24E11 (antibody, V domains shown)
VH: QVQLQESGPGLVKPSETLSLTCTVSTTSLRSYFWSWIRQPPGKGLEWIGYVYYSGSTIYNPSLKNRVTISIDTSKNQFSLNLRSVTAADTAMYFCARGVPAETDARDFPPYYFDHWGQGTLVTVSS
VL: CDIQLTQSPSSLSASVGNRITFTCQASQDIRYYLNWYQQKPGKAPKLLIYDVSNLDTGVPPRFSGSGSGTNFTFTISSLQPEDIAVYYCQQYEGLPVTFGGGTKVEIK
notes: as for B1
As for B4, the EC50 is above 200 nM in [9], 12.8 nM in test [10] and 11.3 nM in test [11].

Values taken from US20200010567A1 (NEURIMMUNE, published 2020).
